The target of the data set is T1, BMC07 (uncultured bacterium (metagenome)).
T1 chain: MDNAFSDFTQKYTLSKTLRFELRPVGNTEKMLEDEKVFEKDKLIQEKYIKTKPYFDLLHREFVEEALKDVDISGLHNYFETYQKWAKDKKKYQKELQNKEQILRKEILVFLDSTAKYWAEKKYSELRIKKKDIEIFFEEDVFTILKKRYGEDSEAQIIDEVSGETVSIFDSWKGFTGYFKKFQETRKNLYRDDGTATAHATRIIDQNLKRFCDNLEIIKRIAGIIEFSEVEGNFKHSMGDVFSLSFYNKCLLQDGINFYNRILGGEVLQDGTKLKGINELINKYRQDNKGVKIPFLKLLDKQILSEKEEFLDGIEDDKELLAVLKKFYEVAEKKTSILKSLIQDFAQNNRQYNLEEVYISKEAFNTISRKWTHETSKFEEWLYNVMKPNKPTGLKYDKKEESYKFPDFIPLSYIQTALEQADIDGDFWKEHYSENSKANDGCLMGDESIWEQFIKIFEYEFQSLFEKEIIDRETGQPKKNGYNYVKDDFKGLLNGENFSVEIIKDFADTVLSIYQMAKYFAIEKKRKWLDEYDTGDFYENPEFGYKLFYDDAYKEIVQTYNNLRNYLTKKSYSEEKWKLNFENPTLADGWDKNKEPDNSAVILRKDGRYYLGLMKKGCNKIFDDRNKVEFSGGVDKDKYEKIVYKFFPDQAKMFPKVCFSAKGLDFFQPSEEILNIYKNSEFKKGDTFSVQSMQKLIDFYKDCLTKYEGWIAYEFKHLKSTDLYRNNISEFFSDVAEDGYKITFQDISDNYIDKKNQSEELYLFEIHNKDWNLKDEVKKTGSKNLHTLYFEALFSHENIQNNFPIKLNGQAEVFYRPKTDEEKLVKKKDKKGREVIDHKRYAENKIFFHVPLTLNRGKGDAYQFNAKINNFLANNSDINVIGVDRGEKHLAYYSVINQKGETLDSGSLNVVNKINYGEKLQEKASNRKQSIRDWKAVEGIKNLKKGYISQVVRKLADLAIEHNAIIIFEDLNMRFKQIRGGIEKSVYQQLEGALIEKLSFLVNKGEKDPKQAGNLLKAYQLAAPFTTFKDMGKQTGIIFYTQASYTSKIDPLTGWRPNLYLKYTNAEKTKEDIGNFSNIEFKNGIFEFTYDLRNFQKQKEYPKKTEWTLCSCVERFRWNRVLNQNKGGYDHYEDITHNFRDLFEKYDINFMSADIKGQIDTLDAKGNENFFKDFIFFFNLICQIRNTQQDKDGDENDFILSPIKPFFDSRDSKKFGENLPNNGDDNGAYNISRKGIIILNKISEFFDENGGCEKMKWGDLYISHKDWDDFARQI
Briefly: cell_activity; PAM not stated; E. coli depletion, 30 C. Here is the method: Overnight grown pre-cultures were diluted into fresh 60 ml LB-Kanamycin (25 μg/ml) (Example 4) or LB-Kanamycin (25μg/ml)/Nourseothricin (50 μg/ml) medium (Example 5) to obtain an optical density at 600 nm (OD600) of 0.06. The inoculated medium was incubated at 30° C. on a horizontal shaker at 250 rpm until the culture reached an optical density at OD600 of 0.2. For induced BMC (NN) nuclease expression, 600 μl 20% L-(+)-arabinose (w/v) was added to the culture at a final concentration of 0.2% (v/v). The cultivation was continued until the culture reached an optical density at OD600 of 0.5. Subsequently 50 ml culture was transferred into one 50 ml conical tube and harvested by centrifugation at 4° C. for 5 min and 4000×g. Pelleted cells were resuspended in 50 ml ultrapure water (ice-cold) and centrifuged at 4° C. for 5 min and 4000×g.
This washing procedure was repeated twice. Washed cells were resuspended in 25 ml 10% (w/w) glycerin and re-centrifuged at 4° C. for 5 min and 4000×g. The pelleted cells were resuspended in 5 ml 10% (w/w) glycerin. After the final centrifugation step at 4° C. for 5 min and 4000×g, the cells were resuspended in 125 μl 10% (w/w) glycerin. Aliquots of 25 μl competent cells were stored at −80° C. until use. For the transformation procedure, aliquots of competent cells were thawed on ice and 50-100 ng plasmid DNA (CRISPR/gRNA-Ec) was added. Prepared cells were electroporated at 1800 V, 25 μF and 200 Ω in 1 mm gap size electroporation cuvettes, using the Bio-Rad Gene Pulser Xcell Electroporation System. Subsequently, 975 μL of NEB® 10-beta/Stable Outgrowth Medium was added immediately after the pulse to the transformed cells. Regeneration was done at 30° C. on a horizontal shaker at 250 rpm. Finally, 25-100 μl of the cell suspension was plated onto selective M9-Glucose agar plates supplemented with Kanamycin (25 μg/ml)/Ampicillin (100 μg/ml) (Example 4) or Kanamycin (25 μg/ml)/Ampicillin (100 μg/ml)/Nourseothrin (50 μg/ml) (Example 5). Growth of transformed E. coli cells on selective agar plates was screened for 48 h at 30° C.
As described above, each of the BMC01, BMC02, BMC03, BMC04, BMC05, BMC07, BMC08, BMC09, BMC10, BMC11, BMC12, BMC13, BMC14, or BMC15 nucleases was co-transformed into E. coli with a gRNA targeting the E. coli malQ gene to visualize a) the activity and b) the DNA targeting efficiency of the BMC nucleases.

Some results are limits rather than exact numbers.

Consider one molecule from patent publication US20250277199, “NOVEL CRISPR-CAS NUCLEASES FROM METAGENOMES” (Brain Biotech AG, published 2025).

B1: malQ gRNA (BMC stem-loop + 24 nt spacer) ; malQ protospacer (ssRNA ; dsDNA)
RNA: GAUUUCUACUAUUGUAGAUGUGGCGGUACGUUGAUGCAUCGCG
DNA 1: GTGGCGGTACGTTGATGCATCGCG
DNA 2: CGCGATGCATCAACGTACCGCCAC
Regarding B1, the activity was more than 99.9 % colony reduction.
